In US20140248295A1 (ROCKEFELLER UNIVERSITY, published 2014):

molecular target: T1, Recombinant sCD4 comprising the full-length extracellular domain of human CD4 (human, UniProt P01730 26-396); assay: SPR (Biacore), antibody on CM5 chip by amine coupling, sCD4 as analyte, 25 C
T1 construct: also called human sCD4 protein; CD4 protein
Protocol: Binding affinity analyses were performed with a T3000 instrument (GE Healthcare, Piscataway, N.J.). […] Briefly, carboxyl groups on the sensor chip surface were activated by injection of a solution containing 0.2 M EDC and 0.05 M NHS. Next, sCD4 protein in 10 mM NaOAc buffer (pH5) was flowed over the chip surface until the desired level of response units was achieved. After unreacted protein was washed out, excess active ester groups on the sensor surface were capped by the injection of 1 M ethanolamine, pH 8.0. Binding experiments were performed at 25° C. in HBS-EP buffer (GE Healthcare). Binding kinetics were measured by passing various concentrations of human sCD4 protein over the chip surface. For kinetics data analysis, the kinetic parameters ([…], association rate constant; koff, dissociation rate constant; KD, equilibrium dissociation constant) were determined by collectively fitting the overlaid sensograms using the BIAevaluation 4.1 software.
CD4 binding affinities of these mutant antibodies were examined using surface plasmon resonance.

| Binder | Kd |
| --- | --- |
| Ibalizumab light chain mutant LM30E (antibody, human IgG1, kappa, V domains shown) VH: QVQLQQSGPEVVKPGASVKMSCKASGYTFTSYVIHWVRQKPGQGLDWIGYINPYNDGTDYDEKFKGKATLTSDTSTSTAYMELSSLRSEDTAVYYCAREKDNYATGAWFAYWGQGTLVTVSS VL: DIVMTQSPDSLAVSLGERVTMNCKSSQSLLYSTNNATYLAWYQQKPGQSPKLLIYWASTRESGVPDRFSGSGSGTDFTLTISSVQAEDVAVYYCQQYYSYRTFGGGTKLEIKR | 1.3 nM |
| Ibalizumab light chain mutant LM52 (antibody, human IgG1, kappa, V domains shown, also called iMab-LM52; Ibalizumab LM52) VH: QVQLQQSGPEVVKPGASVKMSCKASGYTFTSYVIHWVRQKPGQGLDWIGYINPYNDGTDYDEKFKGKATLTSDTSTSTAYMELSSLRSEDTAVYYCAREKDNYATGAWFAYWGQGTLVTVSS VL: DIVMTQSPDSLAVSLGERVTMNCKSSQSLLYSTNQKNYLAWYQQKPGQSPKLLIYWANSTESGVPDRFSGSGSGTDFTLTISSVQAEDVAVYYCQQYYSYRTFGGGTKLEIKR | 0.35 nM |
| Ibalizumab light chain mutant LM67 (antibody, human IgG1, kappa, V domains shown) VH: QVQLQQSGPEVVKPGASVKMSCKASGYTFTSYVIHWVRQKPGQGLDWIGYINPYNDGTDYDEKFKGKATLTSDTSTSTAYMELSSLRSEDTAVYYCAREKDNYATGAWFAYWGQGTLVTVSS VL: DIVMTQSPDSLAVSLGERVTMNCKSSQSLLYSTNQKNYLAWYQQKPGQSPKLLIYWASTRESGVPDRFSGSGNATDFTLTISSVQAEDVAVYYCQQYYSYRTFGGGTKLEIKR | 0.8 nM |
| Ibalizumab light chain mutant LM65 (antibody, human IgG1, kappa, V domains shown) VH: QVQLQQSGPEVVKPGASVKMSCKASGYTFTSYVIHWVRQKPGQGLDWIGYINPYNDGTDYDEKFKGKATLTSDTSTSTAYMELSSLRSEDTAVYYCAREKDNYATGAWFAYWGQGTLVTVSS VL: DIVMTQSPDSLAVSLGERVTMNCKSSQSLLYSTNQKNYLAWYQQKPGQSPKLLIYWASTRESGVPDRFSGNATGTDFTLTISSVQAEDVAVYYCQQYYSYRTFGGGTKLEIKR | 1.5 nM |
| Ibalizumab light chain mutant LM60 (antibody, human IgG1, kappa, V domains shown) VH: QVQLQQSGPEVVKPGASVKMSCKASGYTFTSYVIHWVRQKPGQGLDWIGYINPYNDGTDYDEKFKGKATLTSDTSTSTAYMELSSLRSEDTAVYYCAREKDNYATGAWFAYWGQGTLVTVSS VL: DIVMTQSPDSLAVSLGERVTMNCKSSQSLLYSTNQKNYLAWYQQKPGQSPKLLIYWASTRESGVPNATSGSGSGTDFTLTISSVQAEDVAVYYCQQYYSYRTFGGGTKLEIKR | 0.19 nM |
| Ibalizumab light chain mutant LM76 (antibody, human IgG1, kappa, V domains shown) VH: QVQLQQSGPEVVKPGASVKMSCKASGYTFTSYVIHWVRQKPGQGLDWIGYINPYNDGTDYDEKFKGKATLTSDTSTSTAYMELSSLRSEDTAVYYCAREKDNYATGAWFAYWGQGTLVTVSS VL: DIVMTQSPDSLAVSLGERVTMNCKSSQSLLYSTNQKNYLAWYQQKPGQSPKLLIYWASTRESGVPDRFSGSGSGTDFTLTINATQAEDVAVYYCQQYYSYRTFGGGTKLEIKR | 0.28 nM |
| Ibalizumab light chain mutant LM53 (antibody, human IgG1, kappa, V domains shown) VH: QVQLQQSGPEVVKPGASVKMSCKASGYTFTSYVIHWVRQKPGQGLDWIGYINPYNDGTDYDEKFKGKATLTSDTSTSTAYMELSSLRSEDTAVYYCAREKDNYATGAWFAYWGQGTLVTVSS VL: DIVMTQSPDSLAVSLGERVTMNCKSSQSLLYSTNQKNYLAWYQQKPGQSPKLLIYWASNATSGVPDRFSGSGSGTDFTLTISSVQAEDVAVYYCQQYYSYRTFGGGTKLEIKR | 0.53 nM |
